Patent US6586197B1, “Methods and materials for identifying novel pesticide agents” (priority 1999, dated 2003)

Columns and labels:
expressed M sexta APN1a = experiment: Aminopeptidase N activity assay (L-leucine-p-nitroanilide), homogenate of pHSP120-transfected Sf21 cells; format: biochemical, Manduca sexta; conditions: homogenate 50 μg of proteins, pHSP120-transfected Sf21 cells (FIG. 9, column B)
Experimental: (§1) Sf21 cells transfected with pHSP120 or pHSP-HR5 were collected and washed two times with PBS. The cells were suspended in 2 ml PBS and then homogenized with Potter-Helvehjem homogenizer. The cell homogenate was centrifuged at 27,000×g for 15 min at 4° C. The pellet was re-suspended in 2 ml of 10 mM Tris-HCl, 150 mM NaCl, pH 7.4. APN activity was assayed with L-leucine-p-nitroanilide as substrate as described previously (4). Briefly, the APN substrate (50 μl 6.8 mg/ml in methanol) was mixed with 1.4 ml of substrate buffer (10 mM Tris-HCl, 150 mM NaCl pH 7.4), and then the homogenate (50 μg of proteins) was added. The sample solution was incubated at 37° C. for 2 h. The level of APN activity was then determined by spectrophotometric measurement of free p-nitroanilide at […].
(§2) Sf21 cells transfected with pHSP120 or pHSP-HR5 were collected and homogenized. The homogenate (50 μg of proteins) was tested for APN activity. A high level of APN activity was present in the cells transfected pHSP120 compared with that in the cells transfected with pHSP-HR5 (FIG. 9, columns A and C).

[1] = tested on: enzymatic activity of Sf21 cells transfected with pHSP-HR5; experiment: Aminopeptidase N activity assay (L-leucine-p-nitroanilide), homogenate of pHSP-HR5-transfected Sf21 cells; format: biochemical, Spodoptera frugiperda; conditions: homogenate 50 μg of proteins, pHSP-HR5-transfected Sf21 cells (FIG. 9, column D)
Experimental: as §1, §2

[2] = molecular target: T1, purified 115 kDa APN from Manduca sexta (Manduca sexta, UniProt Q11001); conditions: Masson et al., 1995; cited from earlier work
T1 sequence (Q11001 36-968 limits assumed): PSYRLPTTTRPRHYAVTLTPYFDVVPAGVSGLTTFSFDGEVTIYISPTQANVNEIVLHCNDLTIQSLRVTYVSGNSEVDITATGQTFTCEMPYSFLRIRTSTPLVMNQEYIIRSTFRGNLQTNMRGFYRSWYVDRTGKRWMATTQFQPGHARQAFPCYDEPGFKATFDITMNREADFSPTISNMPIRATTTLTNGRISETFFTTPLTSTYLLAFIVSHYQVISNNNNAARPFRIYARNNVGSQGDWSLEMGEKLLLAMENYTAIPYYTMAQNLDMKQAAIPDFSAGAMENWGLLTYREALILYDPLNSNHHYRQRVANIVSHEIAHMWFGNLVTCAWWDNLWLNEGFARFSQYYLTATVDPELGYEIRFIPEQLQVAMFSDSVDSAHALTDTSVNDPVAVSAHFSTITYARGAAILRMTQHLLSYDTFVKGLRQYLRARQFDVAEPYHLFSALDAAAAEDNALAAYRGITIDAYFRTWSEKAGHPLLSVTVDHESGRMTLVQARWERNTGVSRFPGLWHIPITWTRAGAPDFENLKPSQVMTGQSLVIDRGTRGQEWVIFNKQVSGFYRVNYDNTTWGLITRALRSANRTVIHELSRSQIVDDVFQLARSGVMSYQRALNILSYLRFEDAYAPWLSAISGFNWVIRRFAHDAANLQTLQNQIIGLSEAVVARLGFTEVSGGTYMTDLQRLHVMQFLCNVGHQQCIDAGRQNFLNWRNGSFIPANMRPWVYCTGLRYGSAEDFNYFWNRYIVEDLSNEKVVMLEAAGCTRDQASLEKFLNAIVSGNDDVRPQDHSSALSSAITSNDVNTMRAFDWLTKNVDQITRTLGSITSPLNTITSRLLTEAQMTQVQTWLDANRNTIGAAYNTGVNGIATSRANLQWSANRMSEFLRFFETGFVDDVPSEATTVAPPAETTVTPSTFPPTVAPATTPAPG

M. sexta 120 kDa APN = molecular target: T2, M. sexta 120 kDa APN (Manduca sexta, UniProt Q11001); conditions: previous studies (Knight 1994; Sangadala 1994; Masson 1995; Lu and Adang 1996); cited from earlier work
T2 sequence (Q11001 36-968): T1 sequence (Q11001 36-968 limits assumed)

[3] = tested on: Sf21 cells transfected with pHSP120; experiment: Toxicity assay (Trypan blue cell mortality), Sf21 cells expressing M. sexta 120 kDa APN; conditions: 2 h
Experimental: (§3) The pHSP120 plasmid DNA was isolated and purified using a Plasmid Maxi Kit (Qiagen, Valencia, Calif.). Sf21 (IPLB-Sf21) cells (Vaughn et al., 1977) were plated at 1.8×10^6 cells per plate (60 mm diameter) prior to transfection with pHSP120 DNA. Plasmid DNA (10 μg) was mixed with 5 μl of Lipofectin reagent (Gibco BRL, Gaithersburg, Md.) and combined with 1 ml of TC-100 medium (Gibco BRL, Gaithersburg, Md.). The mixture was incubated at room temperature for 15 min. Following 3 washes with TC-100 medium, the DNA/Lipofectin mixture was added to the cells, and then the cells were incubated at room temperature for 4 h on a rocker. After removal of DNA/Lipofectin mixture, TC-100 with 10% fetal bovine serum (4 ml) was added to the plates and the cells were incubated at 27° C. overnight. Expression of 120 kDa APN in Sf21 cells was induced by heat-shocking cells at 42° C. for 30 min the following day. After incubation at 27° C. for 24 h, the cells were collected and analyzed using immunofluorescence localization and Western blotting.
Sf21 cells (1.8×10^6) were grown and heat-shocked as described above. […] The freshly prepared toxin solution (1 ml) was added to each Sf21 cell plate and incubated at room temperature for 2 h. Cell mortality was determined by trypan blue staining as described by Thomas and Ellar (1983).
(§4) Thetoxicity of three Cry1toxins to Sf21 cells expressing M sexta 120 APN was determined. A single concentration of Cry1toxins (40 μg/ml) was used and the cell mortality was measured by Trypan blue staining (Thomas and Ellar 1983).

[4] = tested on: Sf21 cells transfected with pHSP-HR5; experiment: Toxicity assay (Trypan blue cell mortality), control-vector Sf21 cells; conditions: 2 h
Experimental: as §3, with “Expression of 120 kDa APN in Sf21 cells was induced by heat-shocking cells at 42° C. for 30 min the following day.” left out
Sf21 cells (1.8×10^6) were grown and heat-shocked as described above. […] Cell mortality was determined by trypan blue staining as described by Thomas and Ellar (1983).
as §4

[5] = tested on: expressed 120 kDa APN on Sf21 cells transfected with pHSP120; experiment: Immunofluorescence binding of rhodamine-labeled toxins to Sf21 cells (confocal microscopy), pHSP120; parameters: species or system Manduca sexta; conditions: toxin 1 μg/ml, fixed Sf21 cells transfected with pHSP120
Experimental: Growth of B. thuringiensis strains, trypsin activation, and fast-performance liquid chromatography (Pharmacia) purification of Cry1Ac, […] and Cry3a toxins were done as previously described (Garczynski et al 1991; Lu and Adang 1996). […] The purified Cry1Ac and Cry1Ba (200 μg) were labeled with 5-(and-6)-carboxytetramethylrhodamine, succinimidyl ester [5(6)-TAMRA SE] (Molecular Probe, Eugene, Oreg.) according to the manufacturer's instructions. Briefly, 5(6)-TAMRA (5 mg) were dissolved in 0.5 ml of Dimethylformamide (DMF) immediately before starting the labeling. The dye solution (100 μl) was slowly added into 500 μl of toxin sample (200 μg toxins) and incubated for 1 h at room temperature. The reaction was stopped by adding 0.1 ml of 1.5 M hydroxylamine, pH 8.5, and then the mixture was incubated. for 1h at room temperature. […]
Sf21 cells were plated onto a microscope cover glass (18×18 mm) in a tissue culture dish (60×15 mm diameter), and then transfected and heat-shocked as described above. […] Immunostained cells were observed using fluorescence microscopy or fluorescence confocal microscopy (Center for Advanced Ultrastructural Research, University of Georgia).
Since the expressed 120 kDa APN located on Sf21 cell surfaces, we examined the binding of Cry1toxins to Sf21 cells using double immunofluorescence staining. […] And then cells were viewed by fluorescence confocal microscopy.

[6] = tested on: expressed 120 kDa APN from Sf21 cells; experiment: Toxin affinity chromatography and anti-APN immunoblot, Sf21 cells; format: binding, Manduca sexta; conditions: CHAPS-solubilized Sf21 cells, anti-APN immunoblot (FIG. 13)
Experimental: Affinity purification method of M. sexta 120 kDa APN from Sf21 cells or M. sexta midgut BBMV was described in Luo et al (1996). Briefly, Cry1Ac, Cry1Ba and Cry3a toxins (200 μg) were coupled to 400 μl of cyanogen bromide-activated Sepharose 4B in 20 mM Na2CO3, pH 9.6. M sexta BBMV (1 ml, 3.4 mg/ml proteins) or Sf21 cells (10^7 cells) were solubilized with 2% 3-[(3-cholamidopropyl) dimethylammoniol]-1-propane-sulphonate (CHAPS) in buffer A (50 mM Na2CO3, pH 9.6, 200 mM NaCl, 5 mM EGTA, 0.1% CHAPS). Insoluble material was removed by centrifugation at 27,000×g for 30 min at 4° C. CHAPS-solubilized BBMV (1 ml) or Sf21 cells (2 ml) were then added to the toxin-coupled Sepharose beads equilibrated with Buffer A. The mixture was incubated at 4° C. overnight. After washing with 100 ml of Buffer A, the binding protein-toxin complex was dissociated from the beads by heating in SDS-PAGE sample buffer at 100° C. for 5 min. The samples were separated by 8% SDS-PAGE, and then electrophoretically transferred to nitrocellulose membrane (Millipore Corp., Bedford, Mass.) in transfer buffer (Towbin et al., 1979) at 4° C. overnight. The membrane was blocked with 5% non-fat dry milk in PBST at room temperature for 1 h, and then probed with anti-APN antibody (0.5 μg/ml) in PBST containing 0.1% non-fat dry milk for 2 h. […]

CC(C)C[C@@H](N)[C@H](O)C(=O)N[C@H](C(=O)N[C@H](C(=O)N[C@@H](CC(=O)O)C(=O)O)C(C)C)C(C)C [Amastatin]
Effect on APN activity (expressed M sexta APN1a): greatly reduced
Effect on APN activity [1]: did not show significantly impact

Cry1Ab: Bacillus thuringiensis Cry1 δ-endotoxin (literature)
Binding to purified 115 kDa APN [2]: bind
Specific binding to M. sexta 120 kDa APN (M. sexta 120 kDa APN): bound specifically

Cry1Ac: trypsin-activated, purified B. thuringiensis Cry1Ac toxin
Mortality (%) (±SE), Cells transfected with pHSP 120 ([3]; 40 μg/ml toxin in insect PBS, Trypan blue (0.1%) staining, means of three assays (±standard error)): 20.0 (±0.4) %
Difference in mortality between pHSP120- and pHSP-HR5-transfected Sf21 cells ([3]; 40 μg/ml toxin): no significant difference
Toxicity in words ([3]; 40 μg/ml toxin, Sf21 cells transfected with pHSP120): low toxicity
Mortality (%) (±SE), Cells transfected with pHSP-HR5 ([4]; 40 μg/ml toxin in insect PBS, Trypan blue (0.1%) staining, means of three assays (±standard error), control vector): 20.6 (±0.5) %
Toxicity in words ([4]; 40 μg/ml toxin, Sf21 cells transfected with pHSP-HR5): low toxicity
Binding of rhodamine-labeled toxin (immunofluorescence) [5]: does not bind
Binding of APN to toxin affinity column [6]: did not bind
Binding to purified 115 kDa APN [2]: bind
Specific binding to M. sexta 120 kDa APN (M. sexta 120 kDa APN): bound specifically

Cry1Aa: Bacillus thuringiensis Cry1 δ-endotoxin (literature)
Binding to purified 115 kDa APN [2]: bind
Specific binding to M. sexta 120 kDa APN (M. sexta 120 kDa APN): bound specifically
